# Source: US7691590B2, “Reducing myelin-mediated inhibition of axon regeneration” (Children's Medical Center Corporation, priority 2001, dated 2010)
# Read-outs that look alike come from different tables or passages of the source.
# B1: Nogo-66: 66 amino acid extracellular domain of Nogo-A (protein)
# chain: RIYKGVIQAIQKSDEGHPFRAYLESEVAISEELVQKYSNSALGHVNCTIKELRRLFLVDDLVDSLK
# modifications: left off: large carriers
# notes: 66 amino acid extracellular domain of Nogo-A
# B2: AP-OM: alkaline phosphatase fusion protein containing mouse OMgp, polyhistidine and myc tagged (protein)
# chain: ICPLQCTCTERHRHVDCSGRNLTTLPPGLQENIIHLNLSYNHFTDLHNQLTPYTNLRTLDISNNRLESLPAQLPRSLWNMSAANNNIKLLDKSDTAYQWNLKYLDVSKNMLEKVVLIKNTLRSLEVLNLSSNKLWTVPTNMPSKLHIVDLSNNSLTQILPGTLINLTNLTHLYLHNNKFTFIPEQSFDQLLQLQEITLHNNRWSCDHKQNITYLLKWVMETKAHVIGTPCSKQVSSLKEQSMYPTPPGFTSSLFTMSEMQTVDTINSLSMVTQPKVTKTPKQYRGKETTFGVTLSKDTTFSSTDRAVVAYPEDTPTEMTNSHEAAAATLTIHLQDGMSSNASLTSATKSPPSPVTLSIARGMPNNFSEMPRQSTTLNLRREETTANGNTRPPS
# modifications: left off: large carriers; small tags and cut ends
# notes: alkaline phosphatase fusion protein containing mouse OMgp, polyhistidine and myc tagged
# How the values were obtained:
# [1] = molecular target: T1, Nogo receptor (NgR) (Homo sapiens, UniProt Q9BZR6); conditions: read-out: binding affinity of NgR for Nogo-66; cited from earlier work
# T1 construct: both cDNAs contained the full-length coding region of the Nogo-66 receptor (NgR); expressed in transfected cells; host or cells: CHO cells stably expressing NgR (COS-7 for the library clones)
# T1 sequence (Q9BZR6 27-473): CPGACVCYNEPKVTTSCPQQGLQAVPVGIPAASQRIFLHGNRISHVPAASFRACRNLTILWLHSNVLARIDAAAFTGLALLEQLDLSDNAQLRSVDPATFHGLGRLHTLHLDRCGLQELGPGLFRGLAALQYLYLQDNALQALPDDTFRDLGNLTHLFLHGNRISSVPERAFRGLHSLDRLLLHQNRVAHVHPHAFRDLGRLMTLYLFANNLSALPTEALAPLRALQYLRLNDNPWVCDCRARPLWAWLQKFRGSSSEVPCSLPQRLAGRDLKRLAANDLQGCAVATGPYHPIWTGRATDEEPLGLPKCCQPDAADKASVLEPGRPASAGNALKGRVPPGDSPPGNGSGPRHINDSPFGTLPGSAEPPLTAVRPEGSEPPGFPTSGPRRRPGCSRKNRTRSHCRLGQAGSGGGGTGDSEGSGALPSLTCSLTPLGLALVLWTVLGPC
# [2] = system: chick E7 retinal ganglion neurons (RGN) expressing human NgR; assay: Growth cone collapse in E7 retinal ganglion neurons expressing FLAG-NgR (HSV infection); format: cell-based; conditions: E7 RGN infected with HSV FLAG-NgR
# Source text: To assess whether NgR is capable of mediating OMgp-induced inhibitory activity on neurite outgrowth, we next took a gain-of-function approach to examine whether expression of NgR was able to confer OMgp-responsiveness to otherwise insensitive neurons. It has been shown previously that chick E7 retinal ganglion neurons (RGN) are insensitive to Nogo-66, but that introduction of exogenous NgR in these neurons rendered their growth cones to be responsive to Nogo-66^9. Using the same strategy, we made a recombinant herpes simplex virus (HSV) that drives expression of a FLAG-tagged full-length human NgR (FLAG-NgR) in infected neurons. Upon infection, 80% of the E7 RGNs expressed the FLAG-NgR protein as assessed by immunocytochemistry with an anti-FLAG antibody. […] Furthermore, the growth cones of NgR-expressing axons also become collapsible by OMgp.
# Growth Cone Collapse and Neurite Outgrowth Assays. […] Infection of HSV-LacZ was detected by a standard b-galatosidase staining protocol^20. FLAG-NgR expression was detected by incubating paraformaldehyde-fixed cultures with M2 anti-FLAG antibody (Sigma). Bound antibody was detected by incubation with AP-conjugated […] IgG second antibody and reaction with NBT and BCIP (Vector labs). Growth cone collapse was quantified only in those positively stained for b-galatosidase or immunoreactive for the FLAG epitope.
# [3] = system: growth cones of E13 chick DRG neurons; assay: Growth cone collapse assay with E13 chick DRG explants; format: cell-based; conditions: E13 chick DRG
# Source text: OMgp is a Physiological Nogo Receptor Ligand and Inhibitor of Neurite Outgrowth. To examine whether any GPI-linked proteins in CNS myelin may act as inhibitors of neurite outgrowth, we treated purified bovine white matter myelin with phosphatidylinositol-specific phospholipase C (PI-PLC) and examined the released proteins for their ability to alter growth cone morphology in a growth cone collapse assay using embryonic day 13 chick dorsal root ganglia (E13 DRG)^6,9,10. […] Since the size of this band was similar to that of a previously identified CNS myelin protein OMgp^11,12, we used antibodies specific for OMgp to detect enrichment of cleaved OMgp in the PI-PLC supernatants by Western blot. […] Next, we examined whether purified recombinant OMgp protein was able to act as an inhibitor of neurite outgrowth in two well-established in vitro assays, the growth cone collapse^6,9,13 and the neurite outgrowth assays^3-7,9.
# Growth Cone Collapse and Neurite Outgrowth Assays. Chick E13 DRG and E7 retina were isolated and cultured as described previously^9,10. DRG explants cultured overnight were used for growth cone collapse assays. To assess the effects of PI-PLC treatment, cultures were pre-incubated with 2 U/ml PI-PLC for 30 min prior to treatment with individual test proteins for an additional 30 min. To express NgR in E7 retinal ganglion neurons, we infected the explants with recombinant HSV for 24 hr. After incubation with each test protein for 30 min, retinal explants were fixed in 4% paraformaldehyde and 15% sucrose. Infection of HSV-LacZ was detected by a standard b-galatosidase staining protocol^20. FLAG-NgR expression was detected by incubating paraformaldehyde-fixed cultures with M2 anti-FLAG antibody (Sigma). Bound antibody was detected by incubation with AP-conjugated […] IgG second antibody and reaction with NBT and BCIP (Vector labs). Growth cone collapse was quantified only in those positively stained for b-galatosidase or immunoreactive for the FLAG epitope.
# [4] = molecular target: T1, Nogo receptor (NgR); assay: Cell surface binding of AP fusion proteins to NgR-expressing cells (saturation analysis); conditions: CHO cell line stably expressing NgR; read-out: binding affinity of expressed NgR for AP-OM
# Experimental: To investigate the mechanisms by which OMgp inhibits neurite outgrowth, we used an expression cloning strategy^9,13,16 to identify cell surface OMgp-binding proteins. […] From pools of an adult human brain cDNA expression library, we isolated two cDNAs that encoded OMgp-binding proteins. […] We then established a CHO cell line stably expressing the NgR and determined the binding affinity of expressed NgR for AP-OM as 5 nM, similar to what had been determined for Nogo-66 (7 nM, ref. 9). […] We next performed co-precipitation experiments by incubating GST or a GST fusion protein containing the entire extracellular domain of NgR (GST-NgR) with OM-his alone or in the presence of AP or AP-66 protein. […] We next determined which domain(s) of OMgp was responsible for binding to NgR. Like NgR, OMgp is also a GPI-linked protein containing a leucine-rich repeat (LRR) domain. […]
# Cell surface binding and expression cloning were performed as described previously^4,13,17. […] After extensive washing and heat inactivation, the bound proteins were detected by AP staining using nitro blue tetrazolium (NBT) and 5-bromo-4-chloro-3-indoyl phosphate (BCIP) as substrate. For saturation analysis, we disrupted cells and detected bound AP fusion proteins using r-nitrophenyl phosphate as substrate. […]
Molecule,Kd [1] [nM],growth cone collapse response in NgR-expressing neurons [2],growth cone collapsing activity after PI-PLC treatment of the neurons ([3]; PI-PLC pre-incubation),Kd [4] [nM],growth cone collapsing activity [3]
B1,7,conferred a growth cone collapse response,insensitive,,
B2,,,,5,induce collapse
